According to paper PMC2673036, “Ancient mtDNA Genetic Variants Modulate mtDNA Transcription and Replication”:

Experiments:
[1] = biological target: T1, TFAM (mitochondrial transcription factor A) (UniProt Q00059 43-246); test: EMSA; TFAM:probe 10:1 and 25:1; increased binding vs wt-295, exact value only in figure; 10 mM Tris-HCl pH 7.5, 10 mM KCl, 1 mM DTT, 1 mM EDTA, 6% glycerol; 3 nM probe, 30 or 75 nM TFAM; 30 min, room temperature; 5% native PAGE, 0.5x TBE; conditions: protein: recombinant; (PNK end label); blunt
T1 sequence: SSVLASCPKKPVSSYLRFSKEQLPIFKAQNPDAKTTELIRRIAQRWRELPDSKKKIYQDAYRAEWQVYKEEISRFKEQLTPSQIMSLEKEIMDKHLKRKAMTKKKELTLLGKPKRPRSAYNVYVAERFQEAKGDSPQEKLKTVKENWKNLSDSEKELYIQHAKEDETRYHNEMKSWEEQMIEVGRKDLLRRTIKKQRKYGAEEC

[2] = biological target: T1, TFAM (mitochondrial transcription …); test: EMSA; TFAM:probe 10:1 and 25:1; reference for normalization; 10 mM Tris-HCl pH 7.5, 10 mM KCl, 1 mM DTT, 1 mM EDTA, 6% glycerol; 3 nM probe, 30 or 75 nM TFAM; 30 min, room temperature; 5% native PAGE, 0.5x TBE; conditions: protein: recombinant; (PNK end label); blunt

B1: C295T-VAR (haplogroup J, 276-303) (dsDNA)
DNA 1: ACATCATAACAAAAAATTTTCACCAAAC
DNA 2: GTTTGGTGAAAATTTTTTGTTATGATGT
binding signal [1]: > 1 relative to wt-295

B2: wt-295 (CRS 276-303) (dsDNA)
DNA 1: ACATCATAACAAAAAATTTCCACCAAAC
DNA 2: GTTTGGTGGAAATTTTTTGTTATGATGT
binding signal [2]: 1 relative to wt-295
